The chains are these.
B1: Very-long-chain enoyl-CoA reductase (Homo sapiens), Q9NZ01 (parent)
chain: MKHYEVEILDAKTREKLCFLDKVEPHATIAEIKNLFTKTHPQWYPARQSLRLDPKGKSLKDEDVLQKLPVGTTATLYFRDLGAQISWVTVFLTEYAGPLFIYLLFYFRVPFIYGHKYDFTSSRHTVVHLACICHSFHYIKRLLETLFVHRFSHGTMPLRNIFKNCTYYWGFAAWMAYYINHPLYTPPTYGAQQVKLALAIFVICQLGNFSIHMALRDLRPAGSKTRKIPYPTKNPFTWLFLLVSCPNYTYEVGSWIGFAIMTQCLPVALFSLVGFTQMTIWAKGKHRSYLKEFRDYPPLRMPIIPFLL
B2: Catenin alpha-3 (Homo sapiens), Q9UI47-2 (parent)
chain: MSAETPITLNIDPQDLQVQTFTVEKLLEPLIIQVTTLVNCPQNPSSRKKGRSKRASVLLASVEEATWNLLDKGEKIAQEATVLKDELTASLEEVRKESEALKVSAERFTDDPCFLPKREAVVQAARALLAAVTRLLILADMIDVMCLLQHVSAFQRTFESLKNVANKSDLQKTYQKLGKELENLDYLAFKRQQDLKSPNQRDEIAGARASLKENSPLLHSICSACLEHSDVASLKASKDTVCEEIQNALNVISNASQGIQNMTTPPEPQAATLGSALDELENLIVLNPLTVTEEEIRPSLEKRLEAIISGAALLADSSCTRDLHRERIIAECNAIRQALQDLLSEYMNNAGKKERSNTLNIALDNMCKKTRDLRRQLRKAIIDHVSDSFLDTTVPLLVLIEAAKNGREKEIKEYAAIFHEHTSRLVEVANLACSMSTNEDGIKIVKIAANHLETLCPQIINAALALAARPKSQAVKNTMEMYKRTWENHIHVLTEAVDDITSIDDFLAVSGMFLFF
partner: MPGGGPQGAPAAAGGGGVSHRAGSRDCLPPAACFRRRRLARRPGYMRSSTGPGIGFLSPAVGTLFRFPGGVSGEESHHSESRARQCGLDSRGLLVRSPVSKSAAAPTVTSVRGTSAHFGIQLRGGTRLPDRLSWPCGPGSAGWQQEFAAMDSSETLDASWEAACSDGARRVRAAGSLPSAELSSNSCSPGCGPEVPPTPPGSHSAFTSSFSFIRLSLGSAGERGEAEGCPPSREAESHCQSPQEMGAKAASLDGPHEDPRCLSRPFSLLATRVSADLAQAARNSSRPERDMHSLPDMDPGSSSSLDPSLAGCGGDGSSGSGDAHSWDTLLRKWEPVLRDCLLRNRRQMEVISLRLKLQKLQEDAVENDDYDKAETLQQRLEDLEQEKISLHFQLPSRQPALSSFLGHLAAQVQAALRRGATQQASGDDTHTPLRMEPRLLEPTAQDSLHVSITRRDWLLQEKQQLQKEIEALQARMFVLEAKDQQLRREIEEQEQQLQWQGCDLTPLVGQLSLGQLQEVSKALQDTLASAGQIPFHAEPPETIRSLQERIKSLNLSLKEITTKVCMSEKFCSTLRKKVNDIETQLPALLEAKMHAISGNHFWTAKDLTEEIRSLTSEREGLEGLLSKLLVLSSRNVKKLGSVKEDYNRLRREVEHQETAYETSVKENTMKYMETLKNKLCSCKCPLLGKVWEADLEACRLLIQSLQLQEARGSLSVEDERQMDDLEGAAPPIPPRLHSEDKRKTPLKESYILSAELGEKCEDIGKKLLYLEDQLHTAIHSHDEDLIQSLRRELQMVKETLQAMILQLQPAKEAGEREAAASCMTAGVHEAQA
B3: Dolichol kinase (Homo sapiens), Q9UPQ8 (parent)
chain: MTRECPSPAPGPGAPLSGSVLAEAAVVFAVVLSIHATVWDRYSWCAVALAVQAFYVQYKWDRLLQQGSAVFQFRMSANSGLLPASMVMPLLGLVMKERCQTAGNPFFERFGIVVAATGMAVALFSSVLALGITRPVPTNTCVILGLAGGVIIYIMKHSLSVGEVIEVLEVLLIFVYLNMILLYLLPRCFTPGEALLVLGGISFVLNQLIKRSLTLVESQGDPVDFFLLVVVVGMVLMGIFFSTLFVFMDSGTWASSIFFHLMTCVLSLGVVLPWLHRLIRRNPLLWLLQFLFQTDTRIYLLAYWSLLATLACLVVLYQNAKRSSSESKKHQAPTIARKYFHLIVVATYIPGIIFDRPLLYVAATVCLAVFIFLEYVRYFRIKPLGHTLRSFLSLFLDERDSGPLILTHIYLLLGMSLPIWLIPRPCTQKGSLGGARALVPYAGVLAVGVGDTVASIFGSTMGEIRWPGTKKTFEGTMTSIFAQIISVALILIFDSGVDLNYSYAWILGSISTVSLLEAYTTQIDNLLLPLYLLILLMA
B4: Golgi SNAP receptor complex member 2 (Homo sapiens), O14653 (parent)
chain: MDPLFQQTHKQVHEIQSCMGRLETADKQSVHIVENEIQASIDQIFSRLERLEILSSKEPPNKRQNARLRVDQLKYDVQHLQTALRNFQHRRHAREQQERQREELLSRTFTTNDSDTTIPMDESLQFNSSLQKVHNGMDDLILDGHNILDGLRTQRLTLKGTQKKILDIANMLGLSNTVMRLIEKRAFQDKYFMIGGMLLTCVVMFLVVQYLT
partner: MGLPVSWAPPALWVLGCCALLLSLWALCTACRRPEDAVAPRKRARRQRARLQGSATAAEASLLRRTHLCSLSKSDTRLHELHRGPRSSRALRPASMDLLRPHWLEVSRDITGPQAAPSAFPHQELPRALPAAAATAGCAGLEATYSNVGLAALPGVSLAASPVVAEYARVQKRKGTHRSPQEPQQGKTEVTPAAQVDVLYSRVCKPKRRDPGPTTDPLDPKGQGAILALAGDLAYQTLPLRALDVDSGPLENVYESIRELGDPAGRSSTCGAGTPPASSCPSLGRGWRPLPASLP

Variants of B1 are the subject of one assay. As to conditions: with ergi3_human ERGIC3, Q9Y282.
Sequence of ergi3_human ERGIC3, Q9Y282 (Q9Y282 whole entry): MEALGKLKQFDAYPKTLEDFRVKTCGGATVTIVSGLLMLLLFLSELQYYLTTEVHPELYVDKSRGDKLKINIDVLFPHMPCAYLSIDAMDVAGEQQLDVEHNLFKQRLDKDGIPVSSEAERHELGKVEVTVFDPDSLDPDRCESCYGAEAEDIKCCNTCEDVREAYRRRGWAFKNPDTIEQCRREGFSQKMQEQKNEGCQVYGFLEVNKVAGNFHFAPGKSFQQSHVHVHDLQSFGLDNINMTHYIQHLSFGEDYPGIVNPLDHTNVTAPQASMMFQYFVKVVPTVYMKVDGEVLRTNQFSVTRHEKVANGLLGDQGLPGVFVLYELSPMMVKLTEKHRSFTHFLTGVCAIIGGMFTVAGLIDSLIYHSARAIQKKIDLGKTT
Consider P182L, for which the “effect of a mutation on the interaction” value was “disrupting interaction strength”.

The variants in the next assay derive from B1. As to conditions: with cd79a_human CD79A.
Target sequence in this assay (P11912 whole entry): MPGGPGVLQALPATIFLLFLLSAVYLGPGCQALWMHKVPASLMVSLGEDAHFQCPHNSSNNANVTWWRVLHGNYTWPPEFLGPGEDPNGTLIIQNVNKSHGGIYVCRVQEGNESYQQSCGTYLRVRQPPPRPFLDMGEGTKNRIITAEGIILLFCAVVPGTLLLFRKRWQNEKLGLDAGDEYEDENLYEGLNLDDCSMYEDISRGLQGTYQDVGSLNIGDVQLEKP
Turning to P182L, the “effect of a mutation on the interaction” value is “disrupting interaction strength”.

The next assay covers variants of B1. As to conditions: with MUC1, P15941-11.
Turning to P182L, the “effect of a mutation on the interaction” value is listed as “disrupting interaction strength”.

Another assay covers variants of B1. As to conditions: with ar13b_human ARL13B.
Turning to P182L, the “effect of a mutation on the interaction” value was “disrupting interaction strength”.

In another assay the parent is B1. As to conditions: with SLC7A14, Q8TBB6.
Sequence of SLC7A14, Q8TBB6 (Q8TBB6 whole entry): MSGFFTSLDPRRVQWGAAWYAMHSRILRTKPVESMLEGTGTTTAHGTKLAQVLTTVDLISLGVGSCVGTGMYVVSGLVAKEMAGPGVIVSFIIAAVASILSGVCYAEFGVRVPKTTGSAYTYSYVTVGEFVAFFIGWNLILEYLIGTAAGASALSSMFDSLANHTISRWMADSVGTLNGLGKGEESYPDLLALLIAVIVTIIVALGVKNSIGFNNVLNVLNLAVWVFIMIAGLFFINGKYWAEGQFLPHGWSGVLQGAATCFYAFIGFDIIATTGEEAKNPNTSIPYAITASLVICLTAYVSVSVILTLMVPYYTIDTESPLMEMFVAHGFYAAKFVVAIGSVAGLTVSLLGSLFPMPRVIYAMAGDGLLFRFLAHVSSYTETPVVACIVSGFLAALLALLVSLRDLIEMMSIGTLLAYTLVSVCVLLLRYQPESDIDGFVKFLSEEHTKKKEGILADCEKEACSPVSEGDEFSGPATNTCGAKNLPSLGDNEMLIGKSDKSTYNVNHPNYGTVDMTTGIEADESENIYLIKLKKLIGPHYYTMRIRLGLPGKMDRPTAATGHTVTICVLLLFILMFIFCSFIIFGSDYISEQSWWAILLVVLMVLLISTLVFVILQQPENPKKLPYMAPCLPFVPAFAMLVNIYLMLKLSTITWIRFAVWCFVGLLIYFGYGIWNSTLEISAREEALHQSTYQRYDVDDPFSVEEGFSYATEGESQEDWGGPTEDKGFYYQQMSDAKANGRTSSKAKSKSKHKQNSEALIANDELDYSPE
For P182L, the “effect of a mutation on the interaction” value was “disrupting interaction strength”.

The next assay covers variants of B1. As to conditions: with sting_human STING1, Q86WV6.
Sequence of sting_human STING1, Q86WV6 (Q86WV6 whole entry): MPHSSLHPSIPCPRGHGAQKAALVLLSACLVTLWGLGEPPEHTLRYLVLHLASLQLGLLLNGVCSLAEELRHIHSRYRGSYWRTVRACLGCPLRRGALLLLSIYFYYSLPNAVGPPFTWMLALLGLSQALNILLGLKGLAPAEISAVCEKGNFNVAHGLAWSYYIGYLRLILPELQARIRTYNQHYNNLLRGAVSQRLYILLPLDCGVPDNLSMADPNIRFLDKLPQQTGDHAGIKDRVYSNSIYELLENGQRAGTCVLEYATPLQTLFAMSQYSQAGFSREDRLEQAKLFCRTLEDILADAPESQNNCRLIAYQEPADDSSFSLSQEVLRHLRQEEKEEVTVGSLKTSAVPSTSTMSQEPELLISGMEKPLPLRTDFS
In the case of P182L, the “effect of a mutation on the interaction” value is “with no effect”.

Variants of B2 are the subject of another assay. The conditions noted are these: with DISC1, Q9NRI5-2.
For V94D, the “effect of a mutation on the interaction” value was “disrupting interaction strength”.

In a further assay the parent is B3. The conditions noted are these: with kca10_human KCNA10, Q16322.
Sequence of kca10_human KCNA10, Q16322 (Q16322 whole entry): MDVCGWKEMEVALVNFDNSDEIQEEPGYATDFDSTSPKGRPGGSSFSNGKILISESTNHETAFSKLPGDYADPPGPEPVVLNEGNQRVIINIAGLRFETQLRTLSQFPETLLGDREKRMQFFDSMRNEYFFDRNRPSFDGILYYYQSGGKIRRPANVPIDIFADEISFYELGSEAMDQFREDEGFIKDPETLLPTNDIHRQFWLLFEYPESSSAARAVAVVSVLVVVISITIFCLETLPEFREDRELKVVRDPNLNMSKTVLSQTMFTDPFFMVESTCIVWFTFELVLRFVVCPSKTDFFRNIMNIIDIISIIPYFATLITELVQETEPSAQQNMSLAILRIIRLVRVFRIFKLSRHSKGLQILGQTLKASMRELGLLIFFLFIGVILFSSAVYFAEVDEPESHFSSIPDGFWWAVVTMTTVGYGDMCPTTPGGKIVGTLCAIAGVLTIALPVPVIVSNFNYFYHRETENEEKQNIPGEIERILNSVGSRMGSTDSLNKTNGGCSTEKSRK
Y441S: the “effect of a mutation on the interaction” value is on record as “disrupting interaction strength”.

In a further assay the parent is B3. As to conditions: with kcna6_human KCNA6, P17658.
Sequence of kcna6_human KCNA6, P17658 (P17658 whole entry): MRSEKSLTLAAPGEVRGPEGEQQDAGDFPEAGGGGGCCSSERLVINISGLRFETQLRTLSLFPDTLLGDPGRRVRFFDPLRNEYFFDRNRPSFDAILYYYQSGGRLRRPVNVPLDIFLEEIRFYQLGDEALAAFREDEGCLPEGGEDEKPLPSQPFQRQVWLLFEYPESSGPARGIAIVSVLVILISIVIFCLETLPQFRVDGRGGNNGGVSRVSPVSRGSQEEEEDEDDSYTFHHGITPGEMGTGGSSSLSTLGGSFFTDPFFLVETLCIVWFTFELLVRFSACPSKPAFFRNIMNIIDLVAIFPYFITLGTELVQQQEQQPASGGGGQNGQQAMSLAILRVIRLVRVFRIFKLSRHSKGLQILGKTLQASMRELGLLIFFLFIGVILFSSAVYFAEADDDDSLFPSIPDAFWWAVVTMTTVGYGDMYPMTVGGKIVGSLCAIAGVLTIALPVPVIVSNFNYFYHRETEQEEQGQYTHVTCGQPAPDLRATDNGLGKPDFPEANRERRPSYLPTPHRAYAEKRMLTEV
Consider Y441S, for which the “effect of a mutation on the interaction” value is recorded as “disrupting interaction strength”.

The variants in another assay derive from B3. As to conditions: with eda_human EDA.
Turning to Y441S, the “effect of a mutation on the interaction” value is given as “disrupting interaction strength”.

In a further assay the parent is B3. As to conditions: with apbp2_human APPBP2, Q92624.
Sequence of apbp2_human APPBP2, Q92624 (Q92624 whole entry): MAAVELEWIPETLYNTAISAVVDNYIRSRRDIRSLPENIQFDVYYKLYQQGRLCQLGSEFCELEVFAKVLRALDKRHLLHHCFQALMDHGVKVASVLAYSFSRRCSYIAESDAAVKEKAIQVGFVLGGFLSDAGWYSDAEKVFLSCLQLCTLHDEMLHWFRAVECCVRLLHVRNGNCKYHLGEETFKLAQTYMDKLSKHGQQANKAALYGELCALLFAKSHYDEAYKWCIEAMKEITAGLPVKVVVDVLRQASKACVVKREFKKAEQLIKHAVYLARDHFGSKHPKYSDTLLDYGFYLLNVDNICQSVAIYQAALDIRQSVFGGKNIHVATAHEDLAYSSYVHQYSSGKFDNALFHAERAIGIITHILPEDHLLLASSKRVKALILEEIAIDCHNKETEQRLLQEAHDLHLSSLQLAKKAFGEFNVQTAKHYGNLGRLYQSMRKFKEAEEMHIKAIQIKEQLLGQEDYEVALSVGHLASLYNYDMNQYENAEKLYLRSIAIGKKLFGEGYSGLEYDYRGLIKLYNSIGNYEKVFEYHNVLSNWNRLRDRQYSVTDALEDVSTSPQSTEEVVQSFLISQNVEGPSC
For Y441S, the “effect of a mutation on the interaction” value was “disrupting interaction strength”.

In the next assay the parent is B3. The conditions noted are these: with kcna1_human KCNA1, Q09470.
Sequence of kcna1_human KCNA1, Q09470 (Q09470 whole entry): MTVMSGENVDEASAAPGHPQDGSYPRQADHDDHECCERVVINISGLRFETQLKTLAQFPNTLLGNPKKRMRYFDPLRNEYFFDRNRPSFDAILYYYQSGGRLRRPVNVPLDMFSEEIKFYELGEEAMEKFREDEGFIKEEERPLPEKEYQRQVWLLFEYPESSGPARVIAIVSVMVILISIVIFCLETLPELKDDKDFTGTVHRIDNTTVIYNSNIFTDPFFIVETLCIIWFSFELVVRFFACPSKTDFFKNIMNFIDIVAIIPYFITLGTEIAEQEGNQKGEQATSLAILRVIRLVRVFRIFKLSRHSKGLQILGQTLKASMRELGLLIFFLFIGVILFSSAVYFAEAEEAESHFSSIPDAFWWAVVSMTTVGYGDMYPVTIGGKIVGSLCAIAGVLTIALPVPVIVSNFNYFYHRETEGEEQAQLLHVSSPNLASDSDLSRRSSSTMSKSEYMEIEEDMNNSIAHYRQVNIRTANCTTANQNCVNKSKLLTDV
Turning to Y441S, the “effect of a mutation on the interaction” value is “disrupting interaction strength”.

In a further assay the parent is B3. The conditions noted are these: with ylat2_human SLC7A6, Q92536.
Sequence of ylat2_human SLC7A6, Q92536 (Q92536 whole entry): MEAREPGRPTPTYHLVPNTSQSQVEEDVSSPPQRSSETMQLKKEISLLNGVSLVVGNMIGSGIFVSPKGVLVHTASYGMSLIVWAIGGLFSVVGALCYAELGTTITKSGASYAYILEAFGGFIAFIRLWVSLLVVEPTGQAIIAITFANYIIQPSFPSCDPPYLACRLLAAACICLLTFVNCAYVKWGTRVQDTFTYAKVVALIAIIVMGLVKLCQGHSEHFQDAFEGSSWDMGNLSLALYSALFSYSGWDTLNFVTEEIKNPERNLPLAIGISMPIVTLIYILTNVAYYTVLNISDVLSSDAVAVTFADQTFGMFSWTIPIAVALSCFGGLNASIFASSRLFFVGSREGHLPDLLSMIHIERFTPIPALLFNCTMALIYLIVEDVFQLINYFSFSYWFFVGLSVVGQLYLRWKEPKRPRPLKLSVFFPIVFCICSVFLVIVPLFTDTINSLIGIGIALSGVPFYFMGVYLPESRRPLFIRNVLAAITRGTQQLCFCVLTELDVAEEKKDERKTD
As for Y441S, the “effect of a mutation on the interaction” value was “with no effect”.

Variants of B3 are the subject of the next assay. The conditions noted are these: with kca10_human KCNA10, Q16322. The source holds these as a separate data set.
On to Y441S, for which the “effect of a mutation on the interaction” value is given as “with no effect”.

Variants of B3 are the subject of another assay. The conditions noted are these: with kcna1_human KCNA1, Q09470. The source holds these as a separate data set.
In the case of Y441S, the “effect of a mutation on the interaction” value was “with no effect”.

In the next assay the parent is B3. As to conditions: with synpr_human SYNPR.
Turning to Y441S, the “effect of a mutation on the interaction” value is listed as “disrupting interaction strength”.

Variants of B3 are the subject of a further assay. The conditions noted are these: with tm45b_human TMEM45B.
As for Y441S, the “effect of a mutation on the interaction” value was “disrupting interaction strength”.

The variants in the next assay derive from B3. As to conditions: with cd79a_human CD79A.
Target sequence in this assay (P11912 whole entry): as the sequence (P11912 whole entry) above
Take Y441S: the “effect of a mutation on the interaction” value is on record as “with no effect”.

The next assay covers variants of B3. As to conditions: with cxa8_human GJA8, P48165.
Sequence of cxa8_human GJA8, P48165 (P48165 whole entry): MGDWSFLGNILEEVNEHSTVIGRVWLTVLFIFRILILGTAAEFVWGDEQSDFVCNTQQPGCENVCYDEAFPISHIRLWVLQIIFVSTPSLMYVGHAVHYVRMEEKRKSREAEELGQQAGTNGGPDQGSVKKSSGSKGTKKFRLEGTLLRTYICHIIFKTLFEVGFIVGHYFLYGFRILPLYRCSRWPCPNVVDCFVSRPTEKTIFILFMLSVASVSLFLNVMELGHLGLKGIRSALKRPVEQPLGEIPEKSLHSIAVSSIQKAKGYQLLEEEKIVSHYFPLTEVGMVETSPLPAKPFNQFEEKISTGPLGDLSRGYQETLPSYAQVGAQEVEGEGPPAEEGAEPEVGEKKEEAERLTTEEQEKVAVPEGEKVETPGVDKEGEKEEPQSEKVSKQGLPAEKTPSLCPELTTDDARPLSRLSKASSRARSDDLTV
In the case of Y441S, the “effect of a mutation on the interaction” value was “with no effect”.

A further assay covers variants of B4. As to conditions: with lime1_human LIME1, Q9H400.
As to G144W, the “effect of a mutation on the interaction” value is given as “disrupting interaction strength”.

These data come from IntAct's records for PubMed 32296183.
